System: six V600E BRAF melanoma cell lines
Experiment: Screening of recombinant RTK ligands for ability to confer resistance to BRAFi (PLX4720) or MEKi (PD184352) (Table 4)
Type: cell-based, human
Set-up: ability of recombinant RTK ligand to confer resistance / ability of recombinant RTK ligand to confer resistance (screening value): scale not given here
Description: HGF is the only one that can substantially confer drug resistance to the cell lines.
The complexity of the tumor microenvironment is much greater than an in vitro co-culture system. Therefore, the inventors explored whether the activation of other RTKs could result in a similar resistance as that observed with the activation of MET. To this end, six V600E BRAF melanoma cell lines were tested for their resistance to either BRAFi (PLX4720) or MEKi (PD184352) after the addition of 22 RTK ligands that have the potential of activating almost all known RTKs. […] The activation of a selected subset of these RTKs was confirmed by western blotting and by high throughput tyrosine kinase phosphorylation profiling.

B1: VEGF-C (protein, UniProt P49767 112-227, looked up)
Vascular endothelial growth …: AHYNTEILKSIDNEWRKTQCMPREVCIDVGKEFGVATNTFFKPPCVSVYRCGGCCNSEGLQCMNTSTSYLSKTLFEITVPLSQGPKPVTISFANHTSCRCMSKLDVYRQVHSIIRR
For B1, the “ability of recombinant RTK ligand to confer resistance” value (shortened to “ability of recombinant RTK ligand”) (A2058, PD184352 - 1 uM, ligand 1.6 ng/ml) was 1.01, the “ability of recombinant RTK ligand” value (A2058, PD184352 - 1 uM, ligand 6.25 ng/ml) was 1.02 and the “ability of recombinant RTK ligand” value (A2058, PD184352 - 1 uM, ligand 25 ng/ml) was 1.01. For the same molecule, the “ability of recombinant RTK ligand” value (A2058, PD184352 - 1 uM, ligand 100 ng/ml) was 0.99, the “ability of recombinant RTK ligand” value (A2058, PD184352 - 1 uM, ligand 400 ng/ml) was 0.94 and the “ability of recombinant RTK ligand” value (A2058, PLX4720 - 2 uM, ligand 1.6 ng/ml) was 1.03. For the same molecule, the “ability of recombinant RTK ligand” value (A2058, PLX4720 - 2 uM, ligand 6.25 ng/ml) was 1.04, the “ability of recombinant RTK ligand” value (A2058, PLX4720 - 2 uM, ligand 25 ng/ml) was 1.05 and the “ability of recombinant RTK ligand” value (A2058, PLX4720 - 2 uM, ligand 100 ng/ml) was 1.04. The “ability of recombinant RTK ligand” value (A2058, PLX4720 - 2 uM, ligand 400 ng/ml) was 1.02, the “ability of recombinant RTK ligand” value (C32, PD184352 - 1 uM, ligand 1.6 ng/ml) was 1.06 and the “ability of recombinant RTK ligand” value (C32, PD184352 - 1 uM, ligand 6.25 ng/ml) was 1.03. For the same molecule, the “ability of recombinant RTK ligand” value (C32, PD184352 - 1 uM, ligand 25 ng/ml) was 1.16, the “ability of recombinant RTK ligand” value (C32, PD184352 - 1 uM, ligand 100 ng/ml) was 1.00 and the “ability of recombinant RTK ligand” value (C32, PD184352 - 1 uM, ligand 400 ng/ml) was 1.07. For the same molecule, the “ability of recombinant RTK ligand” value (C32, PLX4720 - 2 uM, ligand 1.6 ng/ml) was 0.94, the “ability of recombinant RTK ligand” value (C32, PLX4720 - 2 uM, ligand 6.25 ng/ml) was 1.09 and the “ability of recombinant RTK ligand” value (C32, PLX4720 - 2 uM, ligand 25 ng/ml) was 1.06. For the same molecule, the “ability of recombinant RTK ligand” value (C32, PLX4720 - 2 uM, ligand 100 ng/ml) was 1.08, the “ability of recombinant RTK ligand” value (C32, PLX4720 - 2 uM, ligand 400 ng/ml) was 1.08 and the “ability of recombinant RTK ligand” value (Colo 829, PD184352 - 1 uM, ligand 1.6 ng/ml) was 0.97. For the same molecule, the “ability of recombinant RTK ligand” value (Colo 829, PD184352 - 1 uM, ligand 6.25 ng/ml) was 1.02, the “ability of recombinant RTK ligand” value (Colo 829, PD184352 - 1 uM, ligand 25 ng/ml) was 0.94 and the “ability of recombinant RTK ligand” value (Colo 829, PD184352 - 1 uM, ligand 100 ng/ml) was 0.95. The “ability of recombinant RTK ligand” value (Colo 829, PD184352 - 1 uM, ligand 400 ng/ml) was 0.90, the “ability of recombinant RTK ligand” value (Colo 829, PLX4720 - 2 uM, ligand 1.6 ng/ml) was 0.99 and the “ability of recombinant RTK ligand” value (Colo 829, PLX4720 - 2 uM, ligand 6.25 ng/ml) was 1.00. For the same molecule, the “ability of recombinant RTK ligand” value (Colo 829, PLX4720 - 2 uM, ligand 25 ng/ml) was 0.92, the “ability of recombinant RTK ligand” value (Colo 829, PLX4720 - 2 uM, ligand 100 ng/ml) was 0.95 and the “ability of recombinant RTK ligand” value (Colo 829, PLX4720 - 2 uM, ligand 400 ng/ml) was 0.90. For the same molecule, the “ability of recombinant RTK ligand” value (G-361, PD184352 - 1 uM, ligand 1.6 ng/ml) was 0.97, the “ability of recombinant RTK ligand” value (G-361, PD184352 - 1 uM, ligand 6.25 ng/ml) was 0.97 and the “ability of recombinant RTK ligand” value (G-361, PD184352 - 1 uM, ligand 25 ng/ml) was 0.91. The “ability of recombinant RTK ligand” value (G-361, PD184352 - 1 uM, ligand 100 ng/ml) was 0.90, the “ability of recombinant RTK ligand” value (G-361, PD184352 - 1 uM, ligand 400 ng/ml) was 0.89 and the “ability of recombinant RTK ligand” value (G-361, PLX4720 - 2 uM, ligand 1.6 ng/ml) was 1.01. For the same molecule, the “ability of recombinant RTK ligand” value (G-361, PLX4720 - 2 uM, ligand 6.25 ng/ml) was 0.97, the “ability of recombinant RTK ligand” value (G-361, PLX4720 - 2 uM, ligand 25 ng/ml) was 0.92 and the “ability of recombinant RTK ligand” value (G-361, PLX4720 - 2 uM, ligand 100 ng/ml) was 0.88. The “ability of recombinant RTK ligand” value (G-361, PLX4720 - 2 uM, ligand 400 ng/ml) was 0.85, the “ability of recombinant RTK ligand” value (SK-MEL-5, PD184352 - 1 uM, ligand 1.6 ng/ml) was 0.97 and the “ability of recombinant RTK ligand” value (SK-MEL-5, PD184352 - 1 uM, ligand 6.25 ng/ml) was 0.36. The “ability of recombinant RTK ligand” value (SK-MEL-5, PD184352 - 1 uM, ligand 25 ng/ml) was 0.96, the “ability of recombinant RTK ligand” value (SK-MEL-5, PD184352 - 1 uM, ligand 100 ng/ml) was 0.98 and the “ability of recombinant RTK ligand” value (SK-MEL-5, PD184352 - 1 uM, ligand 400 ng/ml) was 0.33. The “ability of recombinant RTK ligand” value (SK-MEL-5, PLX4720 - 2 uM, ligand 1.6 ng/ml) was 0.95, the “ability of recombinant RTK ligand” value (SK-MEL-5, PLX4720 - 2 uM, ligand 6.25 ng/ml) was 0.83 and the “ability of recombinant RTK ligand” value (SK-MEL-5, PLX4720 - 2 uM, ligand 25 ng/ml) was 0.87. The “ability of recombinant RTK ligand” value (SK-MEL-5, PLX4720 - 2 uM, ligand 100 ng/ml) was 0.92, the “ability of recombinant RTK ligand” value (SK-MEL-5, PLX4720 - 2 uM, ligand 400 ng/ml) was 0.85 and the “ability of recombinant RTK ligand” value (SK-MEL-28, PD184352 - 1 uM, ligand 1.6 ng/ml) was 1.09. The “ability of recombinant RTK ligand” value (SK-MEL-28, PD184352 - 1 uM, ligand 6.25 ng/ml) was 0.95, the “ability of recombinant RTK ligand” value (SK-MEL-28, PD184352 - 1 uM, ligand 25 ng/ml) was 0.90 and the “ability of recombinant RTK ligand” value (SK-MEL-28, PD184352 - 1 uM, ligand 100 ng/ml) was 1.08. The “ability of recombinant RTK ligand” value (SK-MEL-28, PD184352 - 1 uM, ligand 400 ng/ml) was 0.85, the “ability of recombinant RTK ligand” value (SK-MEL-28, PLX4720 - 2 uM, ligand 1.6 ng/ml) was 1.05 and the “ability of recombinant RTK ligand” value (SK-MEL-28, PLX4720 - 2 uM, ligand 6.25 ng/ml) was 0.94. The “ability of recombinant RTK ligand” value (SK-MEL-28, PLX4720 - 2 uM, ligand 25 ng/ml) was 0.98, the “ability of recombinant RTK ligand” value (SK-MEL-28, PLX4720 - 2 uM, ligand 100 ng/ml) was 1.01 and the “ability of recombinant RTK ligand” value (SK-MEL-28, PLX4720 - 2 uM, ligand 400 ng/ml) was 0.89.
